Holding throughout (test): ELISA, coated CNTN4 domain sample, anti-human IgG Fc-HRP
A general note: An ELISA detects its analyte on a solid surface through an enzyme-linked reagent.

The target in experiment [1] is T1, Human CNTN4 domain sample Full (Domain 1 to Domain 10) (human, UniProt Q8IWV2 19-1000, limits assumed).
T1 construct: domain: Domain 1 to Domain 10 (Ig1 to Ig6 and FN1 to FN4)
T1 sequence (looked up): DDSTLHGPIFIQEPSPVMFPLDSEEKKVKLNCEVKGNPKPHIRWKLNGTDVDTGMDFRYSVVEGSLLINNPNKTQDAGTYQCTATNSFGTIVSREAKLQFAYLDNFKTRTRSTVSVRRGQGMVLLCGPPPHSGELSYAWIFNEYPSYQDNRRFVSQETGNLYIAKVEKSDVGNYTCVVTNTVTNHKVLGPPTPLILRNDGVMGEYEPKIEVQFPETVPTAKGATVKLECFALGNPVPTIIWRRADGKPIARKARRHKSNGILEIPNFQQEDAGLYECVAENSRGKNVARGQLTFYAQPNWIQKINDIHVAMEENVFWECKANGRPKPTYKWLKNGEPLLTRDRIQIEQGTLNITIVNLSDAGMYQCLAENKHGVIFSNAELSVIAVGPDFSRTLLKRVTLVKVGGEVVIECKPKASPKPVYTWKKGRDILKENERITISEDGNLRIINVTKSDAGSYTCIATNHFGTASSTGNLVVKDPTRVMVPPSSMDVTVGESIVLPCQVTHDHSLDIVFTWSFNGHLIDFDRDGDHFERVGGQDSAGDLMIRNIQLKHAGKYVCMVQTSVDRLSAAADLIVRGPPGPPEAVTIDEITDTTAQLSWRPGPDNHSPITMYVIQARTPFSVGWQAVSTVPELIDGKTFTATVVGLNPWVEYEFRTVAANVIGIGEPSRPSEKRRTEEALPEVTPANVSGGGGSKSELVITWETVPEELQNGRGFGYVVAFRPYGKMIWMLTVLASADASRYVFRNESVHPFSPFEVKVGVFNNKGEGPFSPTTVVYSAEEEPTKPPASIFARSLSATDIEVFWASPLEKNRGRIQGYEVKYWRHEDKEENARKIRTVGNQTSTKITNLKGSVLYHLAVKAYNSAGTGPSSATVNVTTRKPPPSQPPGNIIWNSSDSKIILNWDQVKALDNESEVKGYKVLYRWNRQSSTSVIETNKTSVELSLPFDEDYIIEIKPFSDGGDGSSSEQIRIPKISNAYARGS
The procedure:
(§1) 50 μL of the diluted secondary antibody (Anti-human IgG Fc-HRP) was distributed to each well. The wells were sealed with sealing tape and incubated at 37° C. for 1 hour. The wells were washed tree times after Sealing tape was removed.
(§2) 50 μL of ABTs were distributed in each well. The wells were incubated at room temperature for 30 minutes. The absorbance was detected at 405 nm by using Microplate reader.

In experiment [2] the target is T2, Human CNTN4 domain sample D1-4 (human, UniProt Q8IWV2 19-400, limits assumed).
T2 construct: domain: Domain 1 to Domain 4
T2 sequence (looked up): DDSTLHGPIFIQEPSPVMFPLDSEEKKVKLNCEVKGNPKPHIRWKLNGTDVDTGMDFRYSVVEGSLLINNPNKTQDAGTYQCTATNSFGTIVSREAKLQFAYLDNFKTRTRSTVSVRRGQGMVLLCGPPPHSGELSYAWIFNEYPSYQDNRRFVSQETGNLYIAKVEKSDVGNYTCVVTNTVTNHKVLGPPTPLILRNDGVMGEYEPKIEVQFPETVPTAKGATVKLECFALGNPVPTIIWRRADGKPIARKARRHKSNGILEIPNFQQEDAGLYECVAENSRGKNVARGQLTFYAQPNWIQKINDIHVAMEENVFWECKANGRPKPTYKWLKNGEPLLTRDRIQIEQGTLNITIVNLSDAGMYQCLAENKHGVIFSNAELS
Here is the method: as §1, §2

For experiment [3], the target named is T3, Human CNTN4 domain sample D1-5 (human, UniProt Q8IWV2 19-493, limits assumed).
T3 construct: domain: Domain 1 to Domain 5
T3 sequence (looked up): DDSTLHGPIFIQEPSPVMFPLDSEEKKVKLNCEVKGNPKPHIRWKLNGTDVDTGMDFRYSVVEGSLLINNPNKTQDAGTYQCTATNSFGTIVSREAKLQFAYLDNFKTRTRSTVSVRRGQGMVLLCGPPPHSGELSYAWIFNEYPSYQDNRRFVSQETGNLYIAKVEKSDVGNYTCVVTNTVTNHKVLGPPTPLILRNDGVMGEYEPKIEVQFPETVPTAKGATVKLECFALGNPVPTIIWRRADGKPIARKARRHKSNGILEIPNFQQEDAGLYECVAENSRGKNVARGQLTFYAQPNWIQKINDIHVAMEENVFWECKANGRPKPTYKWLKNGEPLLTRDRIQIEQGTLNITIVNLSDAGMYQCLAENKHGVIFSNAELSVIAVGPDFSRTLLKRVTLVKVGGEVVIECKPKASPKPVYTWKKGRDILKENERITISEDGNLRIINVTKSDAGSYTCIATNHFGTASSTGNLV
The procedure: as §1, §2

The target in experiment [4] is T4, Human CNTN4 domain sample D1-6 (human, UniProt Q8IWV2 19-586, limits assumed).
T4 construct: domain: Domain 1 to Domain 6
T4 sequence (looked up): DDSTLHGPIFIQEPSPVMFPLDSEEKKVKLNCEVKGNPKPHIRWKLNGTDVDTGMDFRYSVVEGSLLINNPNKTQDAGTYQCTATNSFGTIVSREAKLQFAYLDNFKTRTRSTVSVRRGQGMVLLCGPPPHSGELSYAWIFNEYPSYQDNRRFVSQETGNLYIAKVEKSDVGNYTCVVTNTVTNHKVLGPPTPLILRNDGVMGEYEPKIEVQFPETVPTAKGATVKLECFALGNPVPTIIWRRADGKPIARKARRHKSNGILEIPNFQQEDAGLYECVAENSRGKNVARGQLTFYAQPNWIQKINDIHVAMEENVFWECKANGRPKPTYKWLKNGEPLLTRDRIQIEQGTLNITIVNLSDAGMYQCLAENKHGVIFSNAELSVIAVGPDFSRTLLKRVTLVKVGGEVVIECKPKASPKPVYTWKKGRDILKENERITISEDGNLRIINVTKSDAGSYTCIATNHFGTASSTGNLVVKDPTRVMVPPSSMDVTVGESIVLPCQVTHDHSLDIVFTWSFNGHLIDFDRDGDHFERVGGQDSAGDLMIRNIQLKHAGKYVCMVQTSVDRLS
The procedure:
as §1, §2

Experiment [5] deals with T5, Human CNTN4 domain sample D1-7 (human, UniProt Q8IWV2 19-697, limits assumed).
T5 construct: domain: Domain 1 to Domain 7
T5 sequence (looked up): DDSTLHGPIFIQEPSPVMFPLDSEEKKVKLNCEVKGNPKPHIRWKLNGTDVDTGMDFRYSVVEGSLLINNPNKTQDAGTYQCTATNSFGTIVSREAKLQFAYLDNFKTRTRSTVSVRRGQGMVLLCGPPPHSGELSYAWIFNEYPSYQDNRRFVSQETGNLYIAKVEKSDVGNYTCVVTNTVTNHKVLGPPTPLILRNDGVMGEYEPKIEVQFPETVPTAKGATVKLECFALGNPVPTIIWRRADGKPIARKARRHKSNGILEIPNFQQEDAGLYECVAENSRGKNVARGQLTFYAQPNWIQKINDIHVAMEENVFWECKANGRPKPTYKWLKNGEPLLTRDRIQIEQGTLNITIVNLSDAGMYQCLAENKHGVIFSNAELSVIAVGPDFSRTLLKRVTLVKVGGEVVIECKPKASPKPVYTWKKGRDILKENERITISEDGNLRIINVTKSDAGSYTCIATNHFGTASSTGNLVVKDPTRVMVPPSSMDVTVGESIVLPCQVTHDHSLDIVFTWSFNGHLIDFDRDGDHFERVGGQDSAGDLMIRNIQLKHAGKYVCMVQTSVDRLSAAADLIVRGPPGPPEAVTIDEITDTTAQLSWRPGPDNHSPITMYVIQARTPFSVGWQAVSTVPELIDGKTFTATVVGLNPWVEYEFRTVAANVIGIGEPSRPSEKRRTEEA
Here is the method:
as §1, §2

For experiment [6], the target named is T6, Human CNTN4 domain sample D1-8 (human, UniProt Q8IWV2 19-799, limits assumed).
T6 construct: domain: Domain 1 to Domain 8
T6 sequence (looked up): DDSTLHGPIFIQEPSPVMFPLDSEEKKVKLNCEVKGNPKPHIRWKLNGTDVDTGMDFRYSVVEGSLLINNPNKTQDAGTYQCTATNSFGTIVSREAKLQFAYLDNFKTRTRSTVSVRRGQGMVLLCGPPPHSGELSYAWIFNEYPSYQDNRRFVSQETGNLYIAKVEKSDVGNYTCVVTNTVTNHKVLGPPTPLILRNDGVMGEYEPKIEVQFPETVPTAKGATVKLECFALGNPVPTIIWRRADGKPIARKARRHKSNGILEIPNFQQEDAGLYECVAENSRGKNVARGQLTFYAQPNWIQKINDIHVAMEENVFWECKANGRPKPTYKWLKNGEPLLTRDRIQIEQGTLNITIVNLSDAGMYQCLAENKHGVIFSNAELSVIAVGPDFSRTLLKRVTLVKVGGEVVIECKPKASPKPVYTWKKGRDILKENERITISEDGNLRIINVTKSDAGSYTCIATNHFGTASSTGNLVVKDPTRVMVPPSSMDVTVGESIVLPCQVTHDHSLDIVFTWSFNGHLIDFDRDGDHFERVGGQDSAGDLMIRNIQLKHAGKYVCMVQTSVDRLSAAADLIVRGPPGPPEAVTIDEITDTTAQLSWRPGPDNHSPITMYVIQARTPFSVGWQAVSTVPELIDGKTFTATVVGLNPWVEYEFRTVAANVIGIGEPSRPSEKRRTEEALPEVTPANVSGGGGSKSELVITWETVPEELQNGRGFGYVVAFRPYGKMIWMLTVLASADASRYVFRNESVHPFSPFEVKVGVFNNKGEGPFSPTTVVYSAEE
Here is the method: as §1, §2

Experiment [7] deals with T7, Human CNTN4 domain sample D1-9 (human, UniProt Q8IWV2 19-899, limits assumed).
T7 construct: domain: Domain 1 to Domain 9
T7 sequence (looked up): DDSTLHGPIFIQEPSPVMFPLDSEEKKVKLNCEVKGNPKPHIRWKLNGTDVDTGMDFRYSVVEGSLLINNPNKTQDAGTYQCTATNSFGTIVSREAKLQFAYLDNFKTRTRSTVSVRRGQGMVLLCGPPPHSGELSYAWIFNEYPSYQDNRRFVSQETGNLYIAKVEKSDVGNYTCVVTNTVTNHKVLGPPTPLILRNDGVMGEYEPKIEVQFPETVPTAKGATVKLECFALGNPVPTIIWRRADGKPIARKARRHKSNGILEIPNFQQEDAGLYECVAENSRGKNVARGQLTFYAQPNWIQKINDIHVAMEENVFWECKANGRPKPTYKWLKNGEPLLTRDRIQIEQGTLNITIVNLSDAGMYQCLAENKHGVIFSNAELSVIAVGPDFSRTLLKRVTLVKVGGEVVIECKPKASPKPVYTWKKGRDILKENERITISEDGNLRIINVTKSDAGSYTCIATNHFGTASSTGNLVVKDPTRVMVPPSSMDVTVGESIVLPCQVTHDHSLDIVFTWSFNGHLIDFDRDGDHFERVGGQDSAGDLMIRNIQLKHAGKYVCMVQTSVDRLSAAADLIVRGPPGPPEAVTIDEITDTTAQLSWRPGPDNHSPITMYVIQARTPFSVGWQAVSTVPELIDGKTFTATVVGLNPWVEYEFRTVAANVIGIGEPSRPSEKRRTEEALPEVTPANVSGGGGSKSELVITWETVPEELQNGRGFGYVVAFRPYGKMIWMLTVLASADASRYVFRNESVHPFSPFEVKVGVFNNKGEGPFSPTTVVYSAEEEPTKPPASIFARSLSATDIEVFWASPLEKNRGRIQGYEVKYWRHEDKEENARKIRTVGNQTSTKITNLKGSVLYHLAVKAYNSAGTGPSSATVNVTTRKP
The procedure: as §1, §2

B1: Anti-CNTN4 chicken-human chimeric IgG4 antibody AB1 (antibody, V domains shown)
VH: AVTLDESEGGLQTPGGALSLVCKASGFTFSSFNMFWVRQAPGKGLEYVAEISGGGGSTWYAPAVKGRATISRDNGQSTVRLQLNNLRAEDTGTYYCAKSADTWSYGAATIDAWGHGTEVIVSS
VL: ALTQPSSVSANLGETVKITCSGSSGSYGWYQQKSPGSAPVTLIYDNTNRPSDIPSRFSGSGSGSTGTLTITGVRAEDEAVYYCGGYDGSTDVFGAGTTLTVL
notes: Chicken variable domains of scFv AB1 on human IgG4 constant regions; It was purified on Kappa select resin, so the light chain is kappa; also called anti-CNTN4 antibody AB1; Anti-CNTN4 129 chimeric IgG4 antibody
Consider B1, for which the binding result is “binds” in experiment [1]; “no binding” in experiment [2]; “no binding” in experiment [3]; “no binding” in experiment [4]; “no binding” in experiment [5]; “binds” in experiment [6]. Moreover, in experiment [7], the binding result is on record as “binds”.

The record behind these values is patent publication US20260184774A1 (GENOME, published 2026).
